We go through 1 molecule from publication PMC7614608 (Nature, 2023).

In this assay the target is T1, 6x-His-3C-EIF4A3 (human, UniProt P38919 1-411).
T1 construct: EIF4A3, human, full length; source: E. coli BL21 DE3 RIL, purified (HisTrap, HiTrapQ, Superdex 75); not shown: His6, N-terminal, kept
The assay is described as follows: pull-down; MBP-tagged bait (ALYREF constructs or CASC3 SELOR) mixed overnight at 4 °C with EIF4A3, Y14(66-154)–MAGOH, ssRNA and AMP-PNP in 25 mM HEPES pH 7.9, 50 mM NaCl, 5 mM MgCl2; held on amylose resin, maltose elution, SDS-PAGE with Coomassie. Particulars: both partners purified.

T1 sequence (P38919 whole entry): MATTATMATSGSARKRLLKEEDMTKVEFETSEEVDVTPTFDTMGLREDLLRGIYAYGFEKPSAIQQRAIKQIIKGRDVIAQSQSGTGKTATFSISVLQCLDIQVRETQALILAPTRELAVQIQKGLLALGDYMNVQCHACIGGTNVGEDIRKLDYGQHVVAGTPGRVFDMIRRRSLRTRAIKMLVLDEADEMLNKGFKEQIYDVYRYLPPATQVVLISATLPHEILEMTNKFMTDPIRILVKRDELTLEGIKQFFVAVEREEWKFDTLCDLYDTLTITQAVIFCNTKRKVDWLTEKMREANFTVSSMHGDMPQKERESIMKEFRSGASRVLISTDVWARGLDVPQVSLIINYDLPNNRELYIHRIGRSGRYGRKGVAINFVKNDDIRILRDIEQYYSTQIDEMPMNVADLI

B1: 10x-His-MBP-3C-ALYREFN (ALYREF residues 1-182) (domain or fragment)
chain: not shown
notes: also called MBP-ALYREFN; source: E. coli BL21 DE3 RIL, purified (HisTrap, cation exchange, Superdex 75); not shown: His10, N-terminal, kept; MBP, N-terminal, kept
As for B1, the binding result is on record as “binds”.
